# From the supplement of paper PMC9112550, “Optimization of the antimicrobial peptide Bac7 by deep mutational scanning” (BMC Biology, 2022)
# Tested on: Escherichia coli TOP10
# Assay: shrunken log2 fold change of peptide-encoding DNA abundance (4.5 h post-induction vs induction); higher = less antimicrobial activity (less host growth inhibition)
# Conditions: time post-induction: 4.5 h; library: site-saturation at positions 5, 18, 19, 20
# 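Further: peptides expressed intracellularly from a pBAD plasmid library in pooled LB shake-flask culture, induced with 0.3% L-arabinose, DNA abundance read by NGS, three biological replicates, DESeq2 with apeglm shrinkage.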
row,Sequence,shrunken log2 fold change
1,RRIRKRPPRLPRPRPRPYKVPRP,-0.558
2,RRIRHRPPRLPRPRPRPSNPPRP,-0.219
3,RRIRIRPPRLPRPRPRPWMAPRP,-0.547
4,RRIRMRPPRLPRPRPRPPKWPRP,0.315
5,RRIRGRPPRLPRPRPRPAFIPRP,-0.177
6,RRIRERPPRLPRPRPRPSSFPRP,-0.426
7,RRIRRRPPRLPRPRPRPCPHPRP,-0.27
8,RRIRLRPPRLPRPRPRPPMTPRP,0.907
9,RRIRYRPPRLPRPRPRPWGYPRP,-0.0919
10,RRIRIRPPRLPRPRPRPSVEPRP,-0.947
11,RRIRNRPPRLPRPRPRPLLKPRP,-0.539
12,RRIRARPPRLPRPRPRPGKKPRP,-0.133
13,RRIRHRPPRLPRPRPRPAWPPRP,0.613
14,RRIRERPPRLPRPRPRPNFVPRP,0.0109
15,RRIRQRPPRLPRPRPRPTAPPRP,0.0785
16,RRIRKRPPRLPRPRPRPEIEPRP,2.58
17,RRIRYRPPRLPRPRPRPVTAPRP,-0.298
18,RRIRTRPPRLPRPRPRPIAKPRP,-0.3
19,RRIRFRPPRLPRPRPRPTGSPRP,-0.103
20,RRIRDRPPRLPRPRPRPAKCPRP,0.124
21,RRIRKRPPRLPRPRPRPLETPRP,0.361
22,RRIRYRPPRLPRPRPRPEKQPRP,-0.000925

row,Sequence,shrunken log2 fold change
1,RRIRPRPPRLPRPRPRPPWTPRP,0.267
2,RRIRSRPPRLPRPRPRPSTAPRP,-0.0171
3,RRIRERPPRLPRPRPRPMNVPRP,-0.00243
4,RRIRYRPPRLPRPRPRPVKCPRP,-1.32
5,RRIRERPPRLPRPRPRPQHKPRP,-0.467
6,RRIRVRPPRLPRPRPRPYPYPRP,-0.0982
7,RRIRTRPPRLPRPRPRPMWWPRP,-0.0168
8,RRIRERPPRLPRPRPRPHWWPRP,0.193
9,RRIRERPPRLPRPRPRPATCPRP,-0.292
10,RRIRHRPPRLPRPRPRPMDGPRP,-0.0367
11,RRIRYRPPRLPRPRPRPCFCPRP,-0.565
12,RRIRKRPPRLPRPRPRPSEGPRP,0.0116
13,RRIRHRPPRLPRPRPRPGMAPRP,0.0763
14,RRIRYRPPRLPRPRPRPFDRPRP,-1.29
15,RRIRRRPPRLPRPRPRPPFEPRP,0.61
16,RRIRRRPPRLPRPRPRPSDIPRP,-1.08
17,RRIRFRPPRLPRPRPRPHISPRP,-0.419
18,RRIRGRPPRLPRPRPRPMADPRP,0.173
19,RRIRHRPPRLPRPRPRPLMQPRP,-0.248
20,RRIRFRPPRLPRPRPRPVIAPRP,-0.186
21,RRIRLRPPRLPRPRPRPQMAPRP,-0.0634
22,RRIRCRPPRLPRPRPRPQKHPRP,-0.0816

row,Sequence,shrunken log2 fold change
1,RRIRSRPPRLPRPRPRPDKIPRP,0.11
2,RRIRIRPPRLPRPRPRPLDHPRP,-0.333
3,RRIRRRPPRLPRPRPRPGWIPRP,0.442
4,RRIRVRPPRLPRPRPRPRCPPRP,-0.00901
5,RRIRGRPPRLPRPRPRPCKNPRP,0.397
6,RRIRYRPPRLPRPRPRPDFPPRP,-0.48
7,RRIRRRPPRLPRPRPRPWKKPRP,-0.0288
8,RRIRRRPPRLPRPRPRPDFTPRP,0.0748
9,RRIRKRPPRLPRPRPRPITFPRP,-0.0147
10,RRIRDRPPRLPRPRPRPIAHPRP,0.41
11,RRIRDRPPRLPRPRPRPDWVPRP,0.0881
12,RRIRYRPPRLPRPRPRPNVFPRP,0.0662
13,RRIRIRPPRLPRPRPRPWGDPRP,-0.38
14,RRIRNRPPRLPRPRPRPQEMPRP,-0.218
15,RRIRHRPPRLPRPRPRPLLIPRP,-0.516
16,RRIRYRPPRLPRPRPRPEVMPRP,0.00902
17,RRIRWRPPRLPRPRPRPFECPRP,-0.01
18,RRIRKRPPRLPRPRPRPVVQPRP,0.242
19,RRIRNRPPRLPRPRPRPSATPRP,-0.0839
20,RRIRMRPPRLPRPRPRPSNGPRP,-0.0373
21,RRIRIRPPRLPRPRPRPHATPRP,-0.0163
22,RRIRGRPPRLPRPRPRPNCIPRP,0.247

row,Sequence,shrunken log2 fold change
1,RRIRQRPPRLPRPRPRPMQQPRP,-0.0642
2,RRIRARPPRLPRPRPRPIDEPRP,0.379
3,RRIRDRPPRLPRPRPRPTEDPRP,-0.0699
4,RRIRYRPPRLPRPRPRPDWTPRP,0.0173
5,RRIRKRPPRLPRPRPRPNRYPRP,0.0446
6,RRIRPRPPRLPRPRPRPDDAPRP,-0.0674
7,RRIRDRPPRLPRPRPRPMFWPRP,0.0751
8,RRIRMRPPRLPRPRPRPMFWPRP,0.0479
9,RRIRRRPPRLPRPRPRPRYKPRP,-0.0686
10,RRIRNRPPRLPRPRPRPCGIPRP,-0.138
11,RRIRCRPPRLPRPRPRPRWPPRP,0.661
12,RRIRHRPPRLPRPRPRPTHQPRP,0.243
13,RRIRIRPPRLPRPRPRPIYVPRP,-0.24
14,RRIRNRPPRLPRPRPRPLWRPRP,0.179
15,RRIRWRPPRLPRPRPRPWFKPRP,-0.123
16,RRIRLRPPRLPRPRPRPFFHPRP,-0.37
17,RRIRYRPPRLPRPRPRPHLYPRP,-1.35
18,RRIRWRPPRLPRPRPRPSHLPRP,-0.517
19,RRIRTRPPRLPRPRPRPMPCPRP,0.159
20,RRIRLRPPRLPRPRPRPAICPRP,0.207
21,RRIRYRPPRLPRPRPRPGRFPRP,-0.0548
22,RRIRYRPPRLPRPRPRPHFFPRP,-0.518

row,Sequence,shrunken log2 fold change
1,RRIRHRPPRLPRPRPRPLFDPRP,-0.692
2,RRIRTRPPRLPRPRPRPHGSPRP,-0.01
3,RRIRGRPPRLPRPRPRPIEFPRP,0.0349
4,RRIRMRPPRLPRPRPRPHAKPRP,0.256
5,RRIRNRPPRLPRPRPRPGWFPRP,-0.00934
6,RRIRQRPPRLPRPRPRPASMPRP,-0.39
7,RRIRRRPPRLPRPRPRPCMTPRP,0.409
8,RRIRMRPPRLPRPRPRPKFWPRP,1.87
9,RRIRMRPPRLPRPRPRPTLAPRP,1.35
10,RRIRQRPPRLPRPRPRPDSAPRP,-0.029
11,RRIRTRPPRLPRPRPRPPPFPRP,0.452
12,RRIRERPPRLPRPRPRPALRPRP,0.0887
13,RRIRIRPPRLPRPRPRPENVPRP,0.267
14,RRIRCRPPRLPRPRPRPQYSPRP,-0.273
15,RRIRGRPPRLPRPRPRPLMNPRP,0.303
16,RRIRWRPPRLPRPRPRPEVIPRP,0.0286
17,RRIRRRPPRLPRPRPRPEFRPRP,0.179
18,RRIRCRPPRLPRPRPRPNWAPRP,-0.336
19,RRIRMRPPRLPRPRPRPTFSPRP,0.386
20,RRIRTRPPRLPRPRPRPLFGPRP,-0.186
21,RRIRERPPRLPRPRPRPDFEPRP,-0.117
